Data reported in the supplement of paper PMC7877785.
± gives the uncertainty stated by the source.

Assay: self-splicing fitness, log relative to wild type (ln ratio); higher = more splicing; Tetrahymena group I intron in knt gene, E. coli kanamycin selection, DiMSum; sequences stand for … in CUCUCU…GGAGGGAAAAGUUAUCAGGCAUGCACCUGGUAGCUAGUCUUUAAACCAAUAGAUUGCAUCGGUUUAAAAGGCAAGACCGUCAAAUUGCGGGAAAGGGGUCAACAGCCGUUCAGUACCAAGUCUCAGGGGAAACUUUGAGAUGGCCUUGCAAAGGGUAUGGUAAUAAGCUGACGGACAUGGUCCUAACCACGCAGCCAAGUCCUAAGUCAACAGAUCUUCUGUUGAUAUGGAUGCAGUUCACAGACUAAAUGUCGGUCGGGGAAGAUGUAUUCUUCUCAUAAGAUAUAGUCGGACCUCUCCUUAAUGGGAGCUAGCGGAUGAAGUGAUGCAACACUGGAGCCGCUGGGAACUAAUUUGUAUGCGAAAGUAUAUUGAUUAGUUUUGGAGUACUCGUGGUCG
How it was run: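 DiMSum derived fitness as the error-weighted combination of fold changes across replicates, kanamycin versus no kanamycin, normalised to wild type. E. coli BL21(DE3) held the library, which randomised all eight P1ex-region intron nucleotides within the knt kanamycin-resistance gene on pET-22b(+). Six replicate transformations grew overnight at 37°C or 30°C on LB agar with or without 25 μg/mL kanamycin, also containing 100 μg/mL carbenicillin, 50 μM IPTG and 0.2% rhamnose, and pooled colonies were amplicon-sequenced on an Illumina HiSeq 2500.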

## UAGCAGCAAUAUUACGUCAA
30 °C
  self-splicing fitness (ln): -1.79 ± 0.12
37 °C
  self-splicing fitness (ln): -1.21 ± 0.11

## UAGCAGCAAUAUUACGAUUU
30 °C
  self-splicing fitness (ln): -2.03 ± 0.11
37 °C
  self-splicing fitness (ln): -0.879 ± 0.12

## UAAUAGCAAUAUUACGGCAC
30 °C
  self-splicing fitness (ln): -2.86 ± 0.22
37 °C
  self-splicing fitness (ln): -1.48 ± 0.19

## CUGAAGCAAUAUUACGGGAU
30 °C
  self-splicing fitness (ln): -1.65 ± 0.076
37 °C
  self-splicing fitness (ln): -1.07 ± 0.11

## GUAUAGCAAUAUUACGAGCA
30 °C
  self-splicing fitness (ln): -2.06 ± 0.2
37 °C
  self-splicing fitness (ln): -1.12 ± 0.16

## UCUGAGCAAUAUUACGGGCC
30 °C
  self-splicing fitness (ln): -2.67 ± 0.35

## UCACAGCAAUAUUACGAUUA
30 °C
  self-splicing fitness (ln): -1.43 ± 0.1
37 °C
  self-splicing fitness (ln): -0.545 ± 0.11

## CUAUAGCAAUAUUACGGCCG
30 °C
  self-splicing fitness (ln): 0.0895 ± 0.15
37 °C
  self-splicing fitness (ln): -0.314 ± 0.15

## GAUAAGCAAUAUUACGCACA
30 °C
  self-splicing fitness (ln): -0.364 ± 0.14
37 °C
  self-splicing fitness (ln): 0.39 ± 0.18

## GGAAAGCAAUAUUACGGGAU
30 °C
  self-splicing fitness (ln): -2.64 ± 0.17
37 °C
  self-splicing fitness (ln): -1.1 ± 0.14

## CUUUAGCAAUAUUACGAUAG
30 °C
  self-splicing fitness (ln): -0.991 ± 0.11
37 °C
  self-splicing fitness (ln): -0.782 ± 0.14

## UGCCAGCAAUAUUACGUGAU
30 °C
  self-splicing fitness (ln): -2.59 ± 0.14
37 °C
  self-splicing fitness (ln): -1.6 ± 0.099

## GGCUAGCAAUAUUACGGGAG
30 °C
  self-splicing fitness (ln): -2.17 ± 0.14
37 °C
  self-splicing fitness (ln): -1.84 ± 0.19

## ACGAAGCAAUAUUACGACGG
30 °C
  self-splicing fitness (ln): -1.2 ± 0.12
37 °C
  self-splicing fitness (ln): -0.994 ± 0.094

## AGUCAGCAAUAUUACGAUUG
30 °C
  self-splicing fitness (ln): -1.38 ± 0.11
37 °C
  self-splicing fitness (ln): -0.258 ± 0.15

## GUGUAGCAAUAUUACGCUGG
30 °C
  self-splicing fitness (ln): -3.59 ± 0.38
37 °C
  self-splicing fitness (ln): -1.54 ± 0.22

## CUGCAGCAAUAUUACGCCAG
30 °C
  self-splicing fitness (ln): -2.56 ± 0.42
37 °C
  self-splicing fitness (ln): -1.07 ± 0.21

## AAAAAGCAAUAUUACGAACG
30 °C
  self-splicing fitness (ln): -0.0786 ± 0.076
37 °C
  self-splicing fitness (ln): -0.303 ± 0.1

## GCGAAGCAAUAUUACGGCAC
30 °C
  self-splicing fitness (ln): 0.112 ± 0.13
37 °C
  self-splicing fitness (ln): 0.387 ± 0.17

## UUGCAGCAAUAUUACGGAUG
30 °C
  self-splicing fitness (ln): -2.29 ± 0.085
37 °C
  self-splicing fitness (ln): -1.21 ± 0.1

## AGCCAGCAAUAUUACGACGG
30 °C
  self-splicing fitness (ln): -4.18 ± 0.42
37 °C
  self-splicing fitness (ln): -1.35 ± 0.25

## GGUUAGCAAUAUUACGUCGG
30 °C
  self-splicing fitness (ln): -2.3 ± 0.36
37 °C
  self-splicing fitness (ln): -1.7 ± 0.35

## CGGCAGCAAUAUUACGGUAU
30 °C
  self-splicing fitness (ln): -3.82 ± 0.19
37 °C
  self-splicing fitness (ln): -3.18 ± 0.22

## AUUCAGCAAUAUUACGACGA
30 °C
  self-splicing fitness (ln): -0.537 ± 0.1
37 °C
  self-splicing fitness (ln): -0.53 ± 0.12

## ACAUAGCAAUAUUACGCCUU
30 °C
  self-splicing fitness (ln): -1.25 ± 0.083
37 °C
  self-splicing fitness (ln): -0.057 ± 0.085

## AGUUAGCAAUAUUACGUCUC
30 °C
  self-splicing fitness (ln): -3.73 ± 0.37
37 °C
  self-splicing fitness (ln): -2.44 ± 0.36

## UAACAGCAAUAUUACGGCCU
30 °C
  self-splicing fitness (ln): -1.21 ± 0.13
37 °C
  self-splicing fitness (ln): -0.33 ± 0.15

## CACAAGCAAUAUUACGAGCA
30 °C
  self-splicing fitness (ln): -2.96 ± 0.2
37 °C
  self-splicing fitness (ln): -2.28 ± 0.17

## AGCAAGCAAUAUUACGGGGA
30 °C
  self-splicing fitness (ln): -2.7 ± 0.14
37 °C
  self-splicing fitness (ln): -2.1 ± 0.14

## ACAUAGCAAUAUUACGUAGC
30 °C
  self-splicing fitness (ln): -2.78 ± 0.13
37 °C
  self-splicing fitness (ln): -2.04 ± 0.19

## CAGGAGCAAUAUUACGUACC
30 °C
  self-splicing fitness (ln): -2.36 ± 0.45

## UAGCAGCAAUAUUACGCGCG
30 °C
  self-splicing fitness (ln): -1.09 ± 0.17
37 °C
  self-splicing fitness (ln): 0.624 ± 0.17

## GUGCAGCAAUAUUACGGAUC
30 °C
  self-splicing fitness (ln): 0.0925 ± 0.13
37 °C
  self-splicing fitness (ln): 0.198 ± 0.14

## CUAGAGCAAUAUUACGUGAC
30 °C
  self-splicing fitness (ln): -1.08 ± 0.12
37 °C
  self-splicing fitness (ln): -1.31 ± 0.17

## AGAAAGCAAUAUUACGUAUA
30 °C
  self-splicing fitness (ln): -2.13 ± 0.12
37 °C
  self-splicing fitness (ln): -1.66 ± 0.13

## CUGGAGCAAUAUUACGGAUC
30 °C
  self-splicing fitness (ln): -2.82 ± 0.21
37 °C
  self-splicing fitness (ln): -2.87 ± 0.35

## UAACAGCAAUAUUACGCACA
30 °C
  self-splicing fitness (ln): -0.339 ± 0.069
37 °C
  self-splicing fitness (ln): 0.114 ± 0.099

## GGACAGCAAUAUUACGUUCC
30 °C
  self-splicing fitness (ln): -2.58 ± 0.3
37 °C
  self-splicing fitness (ln): -2.84 ± 0.45

## CUAGAGCAAUAUUACGGAGG
30 °C
  self-splicing fitness (ln): -1.49 ± 0.13
37 °C
  self-splicing fitness (ln): -1.98 ± 0.16

## AUUUAGCAAUAUUACGGGUA
30 °C
  self-splicing fitness (ln): -2.72 ± 0.3
37 °C
  self-splicing fitness (ln): -1.17 ± 0.17

## AAAGAGCAAUAUUACGCCUU
30 °C
  self-splicing fitness (ln): -3.49 ± 0.29
37 °C
  self-splicing fitness (ln): -1.81 ± 0.23

## CGACAGCAAUAUUACGCCCA
30 °C
  self-splicing fitness (ln): -1.56 ± 0.11
37 °C
  self-splicing fitness (ln): -0.725 ± 0.11
